{"source": "patent US20140045930A1", "about": "“ASSAY FOR ARGINYL HYDROXYLASE ACTIVITY” (priority 2011, published 2014)", "biological_target": "His-tagged L16 protein (recombinant, produced in YcfD knock out strain JW1114) (E. coli) (UniProt A7ZSK2)", "assay": "cell-based or functional assay", "data": [{"substance": "YcfD ectopically expressed in the deletion strain JW1114 (co-expressed with L16 from pETDuet-1) (from UniProt P27431 1-373) (enzyme)", "values": [{"measurement": "hydroxylation of R-81 in L16 in vivo (MS); unmodified peptide detected (% unmodified peptide)", "result": "< 1"}]}]}
